# Paper PMC9712074 (Cell Reports, 2022)
# Substitutions are numbered along the chain they refer to.
# B1: BD55-5215 (antibody, V domains shown)
# VH: EVQLVESGGGLGQPGGSLRLSCAASGFTFSRYGMGWVRQAPGKGLEWVSVISGSGGATYYADSVKGRFTISRDNSKNTLFLQMNSLRVEDTAVYYCAKDGGQLQLVEIFTFDPWGRGTLVTVSS
# VL: DIQMTQSPSSLSASVGDRVTITCRASQGIRNSLAWYQQKPGKAPKLLLYAASRLESGVPSRFSGSGSGTDYTLTISSLQPEDFATYYCQQYYSAWTFGQGTKVEIK
# B2: BD55-5219 (antibody, V domains shown)
# VH: QVQLVQSGSELKRLGASVTLSCKASGYTFTNYAINWVRQAPGHGLQWMGWINPDTGTPTYAQGFAGRFVFSLDSSVSTSYLQIRSLKADDTAVYYCARDANQWPRNQWFGPWGQGTLVTVSS
# VL: DIVLTQSPDSLAVSLGERATINCKSSHSVFYSSSNQNDLAWYQQKPGQPPKLLIYWASIRESGVPDRFSGSGSGTDFTLTISSLQAEDVAVYYCQQHYSTPLTFGGGTKVEIK
# B3: BD55-5223 (antibody, V domains shown)
# VH: EVQLLESGGGWVQPGGSLRLSCAASGFTFSSYAMSWVRQAPGKGLEWVSAISNTGGSTYYADSVKGRFTVSRDDSKNTLYLQMNSLRAEDTAVYYCAKNWDSIGYTSGWQHLDWFDPWGQGTLVTVSS
# VL: DIQMTQSPSSLSASVGDRVTITCRASQSINTYLNWYQQKPGKAPKLLIYVASSLQSGVPSRFSGSGSGTDFTLTISSLQPEDFATYYCQQSYSSPSITFGQGTRLEIK
# B4: BD55-5226 (antibody, V domains shown)
# VH: EVQLVESGGGLVKPGGSLRLSCAASGFTFSSYSMNWVRQAPGKGLEWVSSISMTSSYRHYADSVRGRFTISRDNANNSLFLQMNSLRAEDTAVYFCARDSNLRTGDANDYWGQGTLVTVSS
# VL: not shown
# B5: BD55-5228 (antibody, V domains shown)
# VH: QVHLVQSGSELKKPGASVKVSCKSSGHTFTIFAINWVRQAPGQGLEWMGWINTNTGNPTYAQGFTGRFVFSLDTSVNTAYLQISSLQPEDTAVYYCVGSNWGDYYFDPWGQGTLVTVSS
# VL: EIVMTQSPATLSVSPGERATLSCRASYSLSSNLAWYQQKPGQAPRLLIYGASIRATGFPARFSGNGSGTEFTLTISSLQSEDFAVYYCQQYTSWPLTFGQGTKVEIK
# B6: BD55-5233 (antibody, V domains shown)
# VH: EVQLLESGGGLVQPGGSLRLSCAASGFTFSRSSMGWVRQAPGKGLEWVSTISEDGYTPYYADSVKGRFTISRDNSENRLFLQMNGLRAEDTALYYCAKDVDFDKWRQTCFDSWGQGALVTVSS
# VL: QSVLTQPPSVSGAPGQRVTISCTGSNSNIGAGYDVHWYQQLPGTAPKLLIYGNNNRPSGVPDRFSGSKSGTSASLAITGLQAEDEADYYCQSYDSSLNVLYVFGTGTRVTVL
# B7: BD55-5236 (antibody, V domains shown)
# VH: QVQLVQSGAEVKKPGSSVKVSCKASGGTFTSQAISWVRQAPGQGLEWMGRIITVLGTTTYAQKFQGRLRITADRSTNTAYMDLTGLTSDDTAVYFCARDLDGYSGYDFGSSERRDSFYFDYWGQGTLVNVPS
# VL: SSELTQDPPVSVALGQTVRITCQGDSLRTYYASWFQQKPGQAPLLVVYGKNYRPSGIPARFSGSFSGNTASLTITGAQAEDEADYYCNSRDSNNDHHVIFGGGTKLTVL
# B8: BD55-5238 (antibody, V domains shown)
# VH: QEQLVESGGGVVQPGRSLRLSCAASGLTFSSYAMHWVRQAPGKGLEWVAVIWYNGLKKYYADSVKGRFTISRDNYKNTAYLQMSSLRAEDTAVYYCAREGGGDILTGNEFEFWGQGTLVTVSS
# VL: QSVLTQPPSVSGAPGQTVTISCTGGSSNTGAGYDVHWYQQLPGTAPKLLIFANKNRPSGVPDRFSGSKSGTSASLSITGLQAEDEGDYYCQSYDSSLSGWVFGGGTKVTVL
# B9: BD55-5239 (antibody, V domains shown)
# VH: QVQLQESGPGLVRPSQTLSLTCSVSGGSISSGTYNWAWIRQPPGKDLEWIGHIYHSGSTYYNPSLRSRVNMSVDTSKNQFSLKLSSVTAADTAVYYCARERGPIAEFDFWGQGILVTVSS
# VL: DIQMTQSPSSVSASIGDGVTITCRASQGISSWLAWYQQRPGKAPKLLISAAFTLQSGVPSRFSARGSGTDFTLIISNLQPEDFATYYCQQANSFPPTFGQGTKLEIK
# B10: BD55-5242 (antibody, V domains shown)
# VH: QVQLVQSGAEVKKPGASVKVSCKAFGYTFNSNYIHWVRQAPGQGLEWMGVIDPSGGATSYAQKFQGRVTMTRDTSTNTVYMELSSLRSEDTAVYYCARDLGDDVSRGYSGYDFLDLYGMDVWGQGTTVTVS
# VL: not shown
# B11: BD55-5245 (antibody, V domains shown)
# VH: QVQLVQSGAEVKKPGSSVKVSCKASGGSLSSDGINWVRQAPGQGLEWLGRIIPIPGIADNAQKFQGRVTITADKSTSTAYMELSSLRSEDTAVYYCARAPPRGYSGYDLLGNDAFDIWGQGTMVTVSS
# VL: B6 VL with N26S, I50L, N54T, S65T, S95T, N98S, V99G, L100S, R108K, T110A
# B12: BD55-5248 (antibody, V domains shown)
# VH: QVQLVESGGGVVQPGRSLRLSCAASGFTFSSYDMYWVRQAPGKGLEWVAVISYDGSSNFYADSVKGRFTISRDNSRNTLSLQMNSLRAEDTAVYFCARERREQLTPVFDHWGQGTLVTVSS
# VL: DIQMTQSPSSLSASVGDRVTITCRASQSISSYLNWYQQRPGKAPKLLIYSASTLESGVPSRFSGSGSGTDFTLTINSLQPEDFATYYCQQSYSTLALTFGGGTKVEIK
# B13: BD55-5250 (antibody, V domains shown)
# VH: QVQLVQSGAEVKKPGASVKVSCKASGYTFTSNAIHWVRQAPGQRLEWMGWIMADNGYTKYSENFQGRVTITRDTSASTVYMEVSSLRSGDTAVYYCAREGSMWYSTYFDHWGQGTLVTVSS
# VL: DIQMTQSPSSLSASVGDRVTITCRASQSISSYLTWYQQKSGTAPKLLIYAASSLQSGVPSRFSGSGSGTDFTLTISSLQPEDFATYYCQQSYTDPFTFGPGTKVDFK
# B14: BD55-5251 (antibody, V domains shown)
# VH: QITLKESGPALVKPTQTLTLTCTFSGFSLSSNGVGVGWIRQSPGKALEWLALIYWDDDKRYTPSLKKRLTVTKDTSKNQVVLTMTNMDPVDTATYYCAHMARPRGLFINPSWFDPWGQGTLVTVSS
# VL: QSVLTQPPSASGTPGQRVTISCSGSSSNIGSNTIDWYQQLPGTAPRLLIYGHDLRPSGVPDRFSGSQSGTSASLVISGLQSEDEADYYCAAWDDSLNGPVFGGGTKLTVL
# B15: BD55-5256 (antibody, V domains shown)
# VH: QVQLVQSGTEVKKPGSSVKVSCKASGGPFSGYVINWVRQAPGQGLEWMGGIIPVFETVKYAQKFQGRVTITAGESASTAYMELNSLRSEDTAVYYCAKSKYHSGYDVLTGRADFSLPFDYWGQGTLVTVSS
# VL: DIQMTQSPSSLSASVGDRVIITCQASQDITNSLSWYQQKPGKAPKLLIYGAFNLETGVPSRFSGSGSGTDFTFAISSLQPEDIATYFCQQYADLPYTFGQGTKLDIK
# B16: BD55-5259 (antibody, V domains shown)
# VH: QITLKESGPTLVKPTQTLTLTCTFSGFSLTMPEVGVAWVRQPPGKALEWLALIYGDDNKRYSPSLESRLTITKDSSKNQVVLTMTNLDSVDTATYYCARRKFLWDSDPVAFDYWGLGTLVIVSS
# VL: DIVMTQTPLSLPVTLGQPASISCRSSQSLVHIDGNIYLSWLQQRPGQPPRLLIYKISNRFSGVPDRFSGSGSGTDFTLKISRVEAEDVGVYYCMQATQFPHEMYTFGQGTKLEIR
# B17: BD55-5263 (antibody, V domains shown)
# VH: QVQLVQSGAEVKKPGASVKVSCKGSGYIFTNYGVSWVRQAPGQGLECMGWISAYNGNTDYTQKFQGRVTMTTDTSTSTAYMELRSLTSDDTAVYYCARAAHNWGPEDAFDIWGQGSMVTVSS
# VL: not shown
# B18: BD55-5264 (antibody, V domains shown)
# VH: QVQLVQSGAEVKKPGASVKVSCKVSGYTLTKFSIHWVRQGHGKGLEWMGGFDIGEGGTIYAQKFQGRVTMTEDTSTDTSYMELSSLRSEDTAMYYCATDGEYSSGWAGVKLWGQGTLVTVSS
# VL: DIQMTQSPSTLSASVGDRVTITCRASQSISSWLAWYQQKPGKAPKLLIYKASSLESGVPSRFSGSGSGTEFTLTISSLQPDDFATYYCQQCDSYPWTFGQGTKVEIK
# B19: BD55-5265 (antibody, V domains shown)
# VH: EVQLVQSGAEVKKPGESLKISCKGAGYIFTHYWIAWVRQMPGKGLEWMGIVHPGDSDTRYSPSFQAQVTISADKSINTAYLQWSSLKASDTAIYFCARHGVHSGYSGYDRWDGHYYGMDVWGQGTTVTVSA
# VL: SYVLTQPPSVSVAPGKTARITCGGNNIGSKSVHWYQQKPGQAPVLVVYDGSERPSGIPERFSGSNSENTATLTISRVEAGDEADYYCQVWNDNSDSLVFGTGTEVTVL
# B20: BD55-5267 (antibody, V domains shown)
# VH: QVQLQESGPGLVKPSGTLSLTCAVSGGSISSSNWWSWVRQPPGKGLEWIGEIYHSGSTNYNPSLKSRVTISVDKSKNKFSLKLSSVTAADTAVYFCARAGWIESGYDAFVGYFDYWGQGTLVTVSS
# VL: DIQMTQSPSSLSASVGDRVTITCRASQGISSSLAWYQQKPGKAPDLLLYAASGLESGVPSRFSGSGSGTDFTLSISSLQPEDFATYYCQQYYSPPRTFGQGTKLEIK
# B21: BD55-5268 (antibody, V domains shown)
# VH: QVQLQQRGAGLLRPSETLSLTCDVSGGSFSGYYWNWVRQPPGKGLEWIGDIDLAGDNYNPSLKSRVTMSIDASKNQFSLRLSSVTAADTAVYFCVRAPNLGWFGPKQGAFDLWGQGTVVIVSS
# VL: not shown
# B22: BD55-5271 (antibody, V domains shown)
# VH: QVTLKESGPVLVKPTETLTLTCTVSGISLNNARMAVSWIRQPPGKALEWLAHILSNDEKSFSKSLTSRLTISKDSSKNQVVLRLTNMDPVDTGTYYCARIVYDSSSYYYSGDNWFDPWGQGTQVTVSS
# VL: SYELTQPPSVSVSPGQTARITCTGDAFPNQYAYWYQQKSGQAPVLVIYKDSERPSGIPERFSGSSAGTTVTLTISGVQAEDEADYYCQSADSRGVVFGGGTKVTVL
# B23: BD55-5276 (antibody, V domains shown)
# VH: EVHLEESGGGLVHPGRSLRLSCAASGFTLDEYAMHWVRRAPGKGLEWVSGISWNSGARGYADSVKGRFTISRDNAKNSLYLQMNSLRAEDTAFYYCAKDNSHGSGTAWDWLDSWGQGTLVTVSS
# VL: NFMLTQPHSVSESPGKTVTISCTRSSGTITNNYVQWYRQRPGSSPTTVIFEDNQRPSGVPDRFSGSIDSSSNSASLTISGLKTEDEADYYCQSHDSSNWVFGGGTKLTVL
# Biological target: SARS-CoV-2 (WT) Spike RBD Protein (His Tag) (SARS-CoV-2 ancestral (Wuhan-Hu-1), UniProt P0DTC2)
row,Binder,binding result
1,B1,binds
2,B2,binds
3,B3,binds
4,B4,binds
5,B5,binds
6,B6,binds
7,B7,binds
8,B8,binds
9,B9,binds
10,B10,binds
11,B11,binds
12,B12,binds
13,B13,binds
14,B14,binds
15,B15,binds
16,B16,binds
17,B17,binds
18,B18,binds
19,B19,binds
20,B20,binds
21,B21,binds
22,B22,binds
23,B23,binds
